Laboratory results as given in US20200316163A1 (APELLIS PHARMACEUTICALS, published 2020).
Blank lines part the entries; values can stand above or below the binder they belong to.

How the values were obtained:
Test in all cases: cell-based or functional assay
[1] = target: T1, human complement component C3 (human, UniProt P01024 23-1663)
[2] = target: T1, human complement component C3; remark: listed apart in the source
[3] = target: T1, human complement component C3; remark: listed apart in the source
[4] = target: T1, human complement component C3; remark: listed apart in the source

B1: CA28-2GS-BF (bifunctionalized PEG-based compstatin analog, GS type) (peptide)
peptide: ICVWQDWGAHRCTK
modifications: not fully specified; N-terminal acetyl; 1-methyl-Trp at position 4; disulfide Cys2-Cys12; AEEAc spacer between Thr13 and Lys; C-terminal amide; Lys side chain coupled to one end of a linear bifunctional 40 kD PEG (glutaryl, GS type; amide plus ester linkage)
% Parent in Q1 (Type III cells with high C3d), modified Ham's test, 50 ug/ml [1]: 0.01% | % Parent in Q2 (Type I and II cells with high C3d), modified Ham's test, 50 ug/ml [1]: 0.01% | % Parent in Q3 (Type III cells without significant C3d), modified Ham's test, 50 ug/ml [1]: 61.5% | % Parent in Q4 (Type I and II cells without significant C3d), modified Ham's test, 50 ug/ml [1]: 38.5%

B3: CA28-AEEAc-Lys(mPEG40K-hexanoyl) (peptide)
peptide: ICVWQDWGAHRCTK
modifications: N-terminal acetyl; 1-methyl-Trp at position 4; disulfide Cys2-Cys12; AEEAc spacer between Thr13 and Lys; C-terminal amide; linear 40 kD mPEG (NOF ME-400HS) on the Lys side chain
IC50 (read off the curve), inhibition of classical pathway complement activation (C3b deposition ELISA) [3]: ~0.7 µM

B4: CA28-AEEAc-Lys(mPEG40K-carbonyl) (peptide)
peptide: ICVWQDWGAHRCTK
modifications: not fully specified; N-terminal acetyl; 1-methyl-Trp at position 4; disulfide Cys2-Cys12; AEEAc spacer between Thr13 and Lys; C-terminal amide; linear 40 kD mPEG (NOF ME-400TS) on the Lys side chain
IC50 (read off the curve), inhibition of classical pathway complement activation (C3b deposition ELISA) [3]: ~0.6 µM

B6: (CA28-AEEAc)8-PEG40k (peptide)
peptide: ICVWQDWGAHRCTK
modifications: N-terminal acetyl; 1-methyl-Trp at position 4; disulfide Cys2-Cys12; AEEAc spacer between Thr13 and Lys; C-terminal amide; Lys side chain coupled to an arm of an eight-arm 40 kD PEG (NOF HGEO-400GS)
IC50 on a molar basis (corrected for 7.5 CA28 moieties per molecule), classical complement inhibition assay [4]: ~0.26 µM | IC50, classical complement inhibition assay (C3b deposition ELISA, human plasma), as a function of CA28 moiety concentration [2]: 1.93 µM

Other lines, results leading:

IC50, classical complement inhibition assay (C3b deposition ELISA, human plasma) [2]: 1.26 µM
B2: CA28-AEEAc-Lys-(PEG30k) (peptide)
peptide: ICVWQDWGAHRCTK
modifications: not fully specified; N-terminal acetyl; 1-methyl-Trp at position 4; disulfide Cys2-Cys12; AEEAc (8-amino-3,6-dioxaoctanoyl) spacer between Thr13 and Lys; C-terminal amide; linear monofunctional 30 kD PEG (NOF ME-300GS) on the Lys side …

IC50 (read off the curve), inhibition of classical pathway complement activation (C3b deposition ELISA) [3]: ~0.6 µM | IC50, classical complement inhibition assay (C3b deposition ELISA, human plasma) [2]: 1.29 µM
B5: CA28-AEEAc-Lys-(PEG40k) (peptide)
peptide: ICVWQDWGAHRCTK
modifications: not fully specified; N-terminal acetyl; 1-methyl-Trp at position 4; disulfide Cys2-Cys12; AEEAc spacer between Thr13 and Lys; C-terminal amide; linear monofunctional 40 kD mPEG (NOF ME-400GS) on the Lys side chain

IC50 (read off the curve), inhibition of classical pathway complement activation (C3b deposition ELISA) [3]: ~0.7 µM
B7: CA28-AEEAc-Lys(mPEG40K-succinyl) (peptide)
peptide: ICVWQDWGAHRCTK
modifications: N-terminal acetyl; 1-methyl-Trp at position 4; disulfide Cys2-Cys12; AEEAc spacer between Thr13 and Lys; C-terminal amide; linear 40 kD mPEG (NOF ME-400CS) on the Lys side chain
